According to article PMC6235853:

What was measured:
[1] = molecular target: CusB N-terminal fragment residues 1-61, S(Met) (unlabelled) (Escherichia coli)
[2] = molecular target: CusB N-terminal fragment residues 1-61, S(Met) (unlabelled) (Escherichia coli); assay: rapid freeze quench X-ray absorption spectroscopy (RFQ-XAS, Se K edge); 23 °C; 1:2 mixture of apo-SeM-CusF with Cu(I)-loaded S(met)-CusB-NT, 50 mM HEPES pH 7.5, 5% ethylene glycol, liquid ethane quench, 15 ms to 30 s; Se-Cu peak height fitted (DYNAFIT) to rapid protein-protein association followed by intra-complex metal transfer; the complex shares one Cu(I) between ligands of both proteins

CusB N-terminal fragment residues 1-61, S(Met) (unlabelled) (Escherichia coli), sequence (P77239 29-89 limits assumed): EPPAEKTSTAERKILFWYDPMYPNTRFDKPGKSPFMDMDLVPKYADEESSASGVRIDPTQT

Row | Substance | fast phase of the quenching of the CusF W44 344 nm emission, stopped-flow fluorescence, 4 °C, apo-S(met)-CusF mixed with Cu(I)-S(Met)-CusB-NT [1] [s⁻¹] | slow phase of the quenching of the CusF W44 344 nm emission, stopped-flow fluorescence, 4 °C, apo-S(met)-CusF mixed with Cu(I)-S(Met)-CusB-NT [1] [s⁻¹] | kon [2] [M⁻¹ s⁻¹]
1 | CusF(6-88) M8I M59I double mutant, S(Met) (unlabelled) (domain or fragment) | 165 | 0.012 | –
2 | selenomethionine-labelled CusF(6-88) M8I M59I double mutant (domain or fragment) | – | – | 1e+06
